The values below are quoted from earlier work in patent US10920265B2, “Compounds and methods for detection of enzymes that remove methyl succinyl groups from epsilon-amino lysine moieties” (Enzo Life Sciences, Inc., priority 2011, dated 2021).

No end group written: not given here.

In general, kcat refers to the number of substrate molecules converted per active site and unit of time at saturation.

Common to all, as to details: varied NAD^+, Du et al., 2009; cited from earlier work
The target in one data set is T1, SIRT5 (Homo sapiens, UniProt Q9NXA8).
T1 sequence (Q9NXA8 37-310): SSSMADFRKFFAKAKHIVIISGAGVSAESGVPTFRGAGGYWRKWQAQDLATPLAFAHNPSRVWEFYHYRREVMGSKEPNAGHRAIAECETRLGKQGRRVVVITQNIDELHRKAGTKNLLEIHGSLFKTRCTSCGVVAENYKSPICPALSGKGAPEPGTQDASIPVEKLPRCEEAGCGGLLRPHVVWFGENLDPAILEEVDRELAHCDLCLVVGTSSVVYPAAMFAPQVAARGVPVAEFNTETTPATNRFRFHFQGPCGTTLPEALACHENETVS
Details: purchased Enzo Life Sciences BML-SE555.

In another data set the target is T2, SIRT2 (Homo sapiens, UniProt Q8IXJ6).
T2 sequence (Q8IXJ6 1-389): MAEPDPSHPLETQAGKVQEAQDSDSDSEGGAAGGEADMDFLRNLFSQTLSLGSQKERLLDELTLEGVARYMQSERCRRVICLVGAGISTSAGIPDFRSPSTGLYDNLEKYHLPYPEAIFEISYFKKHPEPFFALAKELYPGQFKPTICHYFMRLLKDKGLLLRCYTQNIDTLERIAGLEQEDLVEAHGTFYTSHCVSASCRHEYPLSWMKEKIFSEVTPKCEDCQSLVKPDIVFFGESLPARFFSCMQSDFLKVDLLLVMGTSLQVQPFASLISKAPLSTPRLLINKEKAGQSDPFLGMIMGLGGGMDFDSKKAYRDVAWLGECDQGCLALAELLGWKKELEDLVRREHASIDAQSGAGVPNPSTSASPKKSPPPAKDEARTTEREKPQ

A further data set deals with T3, SIRT3 (Homo sapiens, UniProt Q9NTG7).
T3 construct: purchased ENZO Life Sciences BML-SE270
T3 sequence (Q9NTG7 1-399): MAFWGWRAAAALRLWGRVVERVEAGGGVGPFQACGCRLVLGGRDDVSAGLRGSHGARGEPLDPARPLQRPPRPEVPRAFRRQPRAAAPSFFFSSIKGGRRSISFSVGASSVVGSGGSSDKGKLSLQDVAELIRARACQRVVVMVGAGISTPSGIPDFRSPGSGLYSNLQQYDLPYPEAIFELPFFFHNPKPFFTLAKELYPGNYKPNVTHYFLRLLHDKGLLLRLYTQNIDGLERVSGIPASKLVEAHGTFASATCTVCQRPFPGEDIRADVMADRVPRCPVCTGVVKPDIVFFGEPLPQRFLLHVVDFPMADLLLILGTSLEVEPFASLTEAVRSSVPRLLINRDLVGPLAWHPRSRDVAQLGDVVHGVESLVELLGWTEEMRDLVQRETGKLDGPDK

The next data set addresses T4, SIRT1 (Homo sapiens, UniProt Q96EB6).
T4 construct: purchased ENZO Life Sciences BML-SE239
T4 sequence (Q96EB6 1-747): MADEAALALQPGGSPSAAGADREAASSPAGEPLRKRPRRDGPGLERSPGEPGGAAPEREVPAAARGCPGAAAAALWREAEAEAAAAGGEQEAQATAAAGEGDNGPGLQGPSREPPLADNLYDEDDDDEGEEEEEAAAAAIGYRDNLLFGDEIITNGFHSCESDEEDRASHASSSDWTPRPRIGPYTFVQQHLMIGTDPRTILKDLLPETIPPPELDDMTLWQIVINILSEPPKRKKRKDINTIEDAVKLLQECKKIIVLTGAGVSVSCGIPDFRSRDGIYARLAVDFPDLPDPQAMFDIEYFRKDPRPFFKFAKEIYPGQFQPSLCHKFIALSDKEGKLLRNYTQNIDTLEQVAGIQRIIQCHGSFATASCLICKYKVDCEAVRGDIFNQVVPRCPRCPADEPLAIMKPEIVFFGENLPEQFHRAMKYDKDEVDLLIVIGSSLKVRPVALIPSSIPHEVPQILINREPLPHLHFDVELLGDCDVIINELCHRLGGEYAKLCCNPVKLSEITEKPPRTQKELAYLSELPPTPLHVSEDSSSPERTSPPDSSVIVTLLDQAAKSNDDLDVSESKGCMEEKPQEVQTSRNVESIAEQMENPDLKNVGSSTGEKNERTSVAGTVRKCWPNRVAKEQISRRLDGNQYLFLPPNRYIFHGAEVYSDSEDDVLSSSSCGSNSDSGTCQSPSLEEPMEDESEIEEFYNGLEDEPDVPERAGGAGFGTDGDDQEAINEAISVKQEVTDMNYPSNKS

With “Hist. H3 4-15, K9Ac: unlabeled peptide, histone H3 residues 4-15 acetylated on lysine-9 (KQTARK(Ac)STGGKA; UniProt P68431 5-16, looked up, fragment)”, the kcat with SIRT5 is 0.003 s⁻¹; with SIRT2, 0.021 s⁻¹; with SIRT3, 0.009 s⁻¹; with SIRT1, 0.079 s⁻¹.
